Data: patent publication US20250257110A1

Target: TAG72 antigen (tumor associated glycoprotein-72)
Experiment: method not stated; scFv affinity toward TAG72 antigen

Substance original humanized CC49 scFv (IDEC) has a Kd of 33 nM.
